Results from publication PMC8092592, “A nanobody toolbox targeting dimeric coiled-coil modules for functionalization of designed protein origami structures” (Proceedings of the National Academy of Sciences of the …, 2021).

Legend:
Conditions in all cases: both partners purified
[1] = target: T1, preformed Nb28_2-APH2 complex (llama, N-terminus acetylated; C-terminus amidated); assay: ITC; nanobody in the syringe titrated into the cell with TET12SN or a tetrahedron variant (2-5 µM), CC peptide dimer (5-10 µM) or a complex preformed by a first titration; MicroCal VP-ITC, 25 °C; 20 mM sodium phosphate pH 7.0, 150 mM NaCl; independent binding sites model (SEDPHAT), errors by Monte-Carlo
T1 construct: peptide APHshSN, as Dm8; Nb28, as Dm3; source: formed in the ITC cell by a first titration of Nb28 into APH2; copies: 2 + 2

[2] = target: T2, APH2, antiparallel homodimeric coiled coil of the synthetic peptide APHshSN (N-terminus acetylated; C-terminus amidated); assay: as above
T2 construct: designed peptide APH (full name APHshSN); also called APH peptide pair; source: synthetic peptide, bought: ProteoGenix
T2 peptide: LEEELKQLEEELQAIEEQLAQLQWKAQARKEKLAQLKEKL

[3] = target: T3, antiparallel homodimeric APH coiled-coil (APH2), isolated peptide dimer (synthetic construct (designed peptide …)); assay: crystal structure; crystals of nanobody-CC dimer complexes, solved by molecular replacement
T3 construct: residues named in the text: E4, L8, I15, Q18, Q21, L22, W24, K25, R29; also called APH CC; APH2 peptide; source: synthetic peptide
T3 chain: T2 peptide

[4] = target: T3, antiparallel homodimeric APH …; assay: ITC; nanobody titrated into the CC peptide dimer, the origami protein or a preformed nanobody-target complex; conditions in SI Appendix
[5] = target: T2, APH2, antiparallel homodimeric coiled …; assay: ITC; titrations at 18, 25 and 32 °C fitted globally (independent binding sites, temperature-independent heat capacity); parameters reported at 25 °C; 20 mM sodium phosphate pH 7.0, 150 mM NaCl
[6] = target: T4, preformed Nb30_2-APH2 complex (llama, N-terminus acetylated; C-terminus amidated); assay: ITC; nanobody in the syringe titrated into the cell with TET12SN or a tetrahedron variant (2-5 µM), CC peptide dimer (5-10 µM) or a complex preformed by a first titration; MicroCal VP-ITC, 25 °C; 20 mM sodium phosphate pH 7.0, 150 mM NaCl; independent binding sites model (SEDPHAT), errors by Monte-Carlo
T4 construct: peptide APHshSN, as Dm8; Nb30, as Dm5; source: formed in the ITC cell by a first titration of Nb30 into APH2; copies: 2 + 2

B1: nanobody Nb30 (VHH)
VHH: QVQLQESGGGLVQPGGSLRLSCAASGSIFSDNDMGWYRQPPGKQREWVATITYDHVTWYADSVKGRFAISRDNAKNTVYLQMNDLKPEDTAVYYCNAVPGRRGSWGQGTQVTVSS
notes: no cleavage of the His6 tag is described; also called Group 10 (Nb30); source: E. coli WK6, periplasmic extract, purified (Ni2+-NTA, SEC)
- Kd [1]: 55 ± 4.2 nM
- stoichiometry N [1]: 2 nanobody per complex (cell:syringe)
- Kd [2]: 710 ± 58 nM
- stoichiometry N [2]: 2 nanobody per APH2 dimer (cell:syringe)

B2: nanobody Nb30 (VHH)
VHH: B1 VHH
notes: selected by phage display from a llama immunised with TET12SN; construct and tags are in SI Appendix, Materials and Methods; source: E. coli, recombinant, produced and isolated according to standard procedures
- stoichiometry N [3]: 2 nanobodies per APH2 dimer (printed 2:2 nanobody:CC peptide)

B3: nanobody Nb26 (VHH)
VHH: QVQLQESGGGLVQAGDSLRLSCAASGRTFSTYPMGWFRQAPGKEREFVAASSSRAYYADSVKGRFTISRNNAKNTVYLQMNSLKPEDTAVYYCVADSSPYYRRYDAAQDYDYWGQGTQVTVSS
notes: no cleavage of the His6 tag is described; also called Group 1 (Nb26); source: E. coli WK6, periplasmic extract, purified (Ni2+-NTA; some nanobodies also SEC)
- stoichiometry N [2]: 2 nanobody per APH2 dimer (cell:syringe)

B4: nanobody Nb26 (VHH)
VHH: B3 VHH
notes: as for B2
- stoichiometry N [3]: 2 nanobodies per APH2 dimer (printed 2:2 nanobody:CC peptide)
- Kd [4]: 39 nM
- dH [4]: -28 kcal ⋅ mol^−1

B5: nanobody Nb49 (VHH)
VHH: QVQLQESGGGLVQPGGSLRLSCIASGRTFNPYGMGWFRQVPGKERTFVSGITWIGGTTYYVNSVKGRFTISRDRAKNTVYLQMNSLKPEDTAVYYCAADKDNTGYNYWGQGTQVTVSS
notes: no cleavage of the His6 tag is described; also called Group 4 (Nb49); source: E. coli WK6, periplasmic extract, purified (Ni2+-NTA; some nanobodies also SEC)
- stoichiometry N [2]: 2 nanobody per APH2 dimer (cell:syringe)

B6: nanobody Nb49 (VHH)
VHH: B5 VHH
notes: as for B2
- stoichiometry N [3]: 2 nanobodies per APH2 dimer (printed 2:2 nanobody:CC peptide)
- Kd [4]: 570 nM

B7: nanobody Nb28 (VHH)
VHH: QVQLQESGGGLVQPGGSLRLSCAAPGFRLDNYVIGWFRQAPGKEREGVSCISSSAGSTYYADSVKGRFTISRDNAKNTVYLQMNSLKPEDTAVYYCATACYSSYVTYWGQGTQVTVSS
notes: no cleavage of the His6 tag is described; also called Group 8 (Nb28); source: E. coli WK6, periplasmic extract, purified (Ni2+-NTA; some nanobodies also SEC)
- Kd [5]: 94 ± 7.5 nM
- stoichiometry N [5]: 2 nanobody per APH2 dimer (cell:syringe)
- Kd [2]: 140 ± 10 nM
- stoichiometry N [2]: 2 nanobody per APH2 dimer (cell:syringe)
- Kd [6]: 23 ± 1.7 nM
- stoichiometry N [6]: 2 nanobody per complex (cell:syringe)

B8: nanobody Nb28 (VHH)
VHH: B7 VHH
notes: as for B2
- stoichiometry N [3]: 2 nanobodies per APH2 dimer (printed 2:2 nanobody:CC peptide)
